Test results taken from paper PMC6116569, “Activity of Vsr endonucleases encoded by Neisseria gonorrhoeae FA1090 is influenced by MutL and MutS proteins” (BMC Microbiology, 2018).

Experiments:
[1] = system: MutS (Neisseria gonorrhoeae FA1090); assay: EMSA; conditions: 0.75 uM protein, 1 mM ATP, 10 mM Ca2+, 10 mM Tris-HCl pH 7.5, 10 mM CaCl2, 0.1 mg/ml BSA, 0.15 uM substrate DNA, 0.032 uM competitor DNA, 20 ul, temperature not stated, 5% PAGE with …
[2] = target: V.NgoAXIII endonuclease, two-hybrid fusion (ngoAXIIIV gene in pC22, plasmid pAK24) (N. gonorrhoeae FA1090); assay: two-hybrid; bacterial two-hybrid system (Di Lallo et al.) in E. coli R721 with lacZ as reporter: fusions to the N-terminal domains of the phage P22 and 434 repressors; an interaction represses β-galactosidase; LB with 0.1 mM IPTG, 37 °C; read-out is the ratio of Miller Units to the plasmid-less strain, a ratio below 0.5 counts as interaction
[3] = target: V.NgoAXIV endonuclease, two-hybrid fusion (ngoAXIVV gene in pC22, plasmid pAK25) (N. gonorrhoeae FA1090); assay: as above
[4] = target: T1, MutS protein of N. gonorrhoeae FA1090, His-tagged, purified (plasmid pAK21) (N. gonorrhoeae FA1090, UniProt Q5F5J4 1-864); assay: pull-down; protein affinity chromatography: 250 μg V.NgoAXIII, V.NgoAXIV or MutLNgo coupled to Affi-Gel 10; 250 μg His-tagged MutLNgo or MutS applied in 25 mM Tris pH 7.5, 50 mM NaCl with 2 mM ATP and 5 mM MgCl2; washed with the same buffer, eluted with 250 mM NaCl; fractions blotted with an anti-His-Tag antibody; conditions: both partners purified
T1 construct: MutS of Neisseria gonorrhoeae FA1090; mutS gene (2595 bp) amplified from chromosomal DNA with primers MutSNheI/MutSNgoR and cloned into the NheI-HindIII sites of pET28a(+); The His-Tag at the amino terminus is encoded by the vector; also called gonococcal MutS protein; source: E. coli BL21(DE3)pLys (pAK21), autoinduction, purified (Ni-NTA Agarose); not shown: His-Tag, N-terminal, kept
T1 sequence (looked up): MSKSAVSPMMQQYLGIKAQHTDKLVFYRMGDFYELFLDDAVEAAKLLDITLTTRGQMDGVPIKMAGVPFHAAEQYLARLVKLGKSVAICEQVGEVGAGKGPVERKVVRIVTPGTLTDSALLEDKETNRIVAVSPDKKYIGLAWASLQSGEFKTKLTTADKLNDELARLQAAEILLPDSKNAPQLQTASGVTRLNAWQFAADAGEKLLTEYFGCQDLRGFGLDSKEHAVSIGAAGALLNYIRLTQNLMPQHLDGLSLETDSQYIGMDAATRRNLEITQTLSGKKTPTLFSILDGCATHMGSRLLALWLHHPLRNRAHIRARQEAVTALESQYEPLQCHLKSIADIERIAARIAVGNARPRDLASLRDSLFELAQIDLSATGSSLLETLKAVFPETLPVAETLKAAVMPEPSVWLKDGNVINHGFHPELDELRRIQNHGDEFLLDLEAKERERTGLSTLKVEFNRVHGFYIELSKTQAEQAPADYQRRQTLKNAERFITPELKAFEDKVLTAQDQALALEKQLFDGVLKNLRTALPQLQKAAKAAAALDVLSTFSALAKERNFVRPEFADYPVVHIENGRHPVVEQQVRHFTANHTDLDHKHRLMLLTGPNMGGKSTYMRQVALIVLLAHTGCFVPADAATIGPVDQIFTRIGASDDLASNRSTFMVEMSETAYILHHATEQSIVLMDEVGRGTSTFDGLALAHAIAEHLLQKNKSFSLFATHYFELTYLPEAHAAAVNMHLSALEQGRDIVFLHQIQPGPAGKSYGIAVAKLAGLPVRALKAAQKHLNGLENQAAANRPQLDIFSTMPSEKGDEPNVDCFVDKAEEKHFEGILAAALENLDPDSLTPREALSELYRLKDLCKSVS

[5] = target: T2, MutL protein of N. gonorrhoeae FA1090, two-hybrid fusion (mutLNgo gene in pC434, plasmid pAK26) (N. gonorrhoeae FA1090, UniProt Q5F8M6 1-658); assay: two-hybrid; bacterial two-hybrid system (Di Lallo et al.) in E. coli R721 with lacZ as reporter: fusions to the N-terminal domains of the phage P22 and 434 repressors; an interaction represses β-galactosidase; LB with 0.1 mM IPTG, 37 °C; read-out is the ratio of Miller Units to the plasmid-less strain, a ratio below 0.5 counts as interaction; conditions: partners not purified
T2 construct: MutL of Neisseria gonorrhoeae FA1090; mutLNgo gene (1977 bp) amplified from chromosomal DNA and cloned into the SalI-BamHI sites of pC434; also called gonococcal MutL protein; source: bacterial two-hybrid fusion, expressed in E. coli R721; not shown: N-terminal domain of the repressor of phage 434 (from the vector pC434), N-terminal, kept
T2 sequence (looked up): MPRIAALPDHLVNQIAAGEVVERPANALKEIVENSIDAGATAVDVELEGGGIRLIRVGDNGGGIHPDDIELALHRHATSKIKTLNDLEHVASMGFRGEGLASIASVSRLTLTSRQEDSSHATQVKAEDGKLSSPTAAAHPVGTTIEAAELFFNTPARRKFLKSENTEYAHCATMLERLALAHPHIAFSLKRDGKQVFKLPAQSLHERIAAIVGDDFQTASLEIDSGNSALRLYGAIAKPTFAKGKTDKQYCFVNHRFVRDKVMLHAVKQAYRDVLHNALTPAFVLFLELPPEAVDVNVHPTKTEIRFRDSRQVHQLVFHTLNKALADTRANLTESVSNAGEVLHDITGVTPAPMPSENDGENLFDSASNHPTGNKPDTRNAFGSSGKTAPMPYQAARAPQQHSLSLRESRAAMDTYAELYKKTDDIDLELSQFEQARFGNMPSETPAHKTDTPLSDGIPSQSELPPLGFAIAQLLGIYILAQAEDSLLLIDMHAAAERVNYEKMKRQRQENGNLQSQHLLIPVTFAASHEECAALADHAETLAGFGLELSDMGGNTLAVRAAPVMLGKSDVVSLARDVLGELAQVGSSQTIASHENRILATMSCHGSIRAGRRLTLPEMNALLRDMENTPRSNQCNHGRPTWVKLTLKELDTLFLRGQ

With “T:G mismatch substrate used with MutS (M.NgoA302P-sub or M.NgoA1175P-sub, not specified)” the binding signal [1] was 90 % bound.

B1: MutL protein of N. gonorrhoeae FA1090, two-hybrid fusion (mutLNgo gene in pC434, plasmid pAK26) (natural protein)
chain: T2 sequence (looked up)
B1 gave a ratio of Miller Units (β-galactosidase activity) to the plasmid-less strain [2] of 0.18 and a ratio of Miller Units (β-galactosidase activity) to the plasmid-less strain [3] of 0.23.

B2: MutL protein of N. gonorrhoeae FA1090, His-tagged, purified (plasmid pAK20) (natural protein, UniProt Q5F8M6 1-658, looked up)
chain: T2 sequence (looked up)
notes: MutL of Neisseria gonorrhoeae FA1090; mutLNgo gene (1977 bp) amplified from chromosomal DNA with primers MutLfor/MutLNgoR and cloned into the NheI-HindIII sites of pET28a(+); The His-Tag at the amino terminus is encoded by the vector; also called MutLNgo; gonococcal MutL protein; source: E. coli BL21(DE3)pLys (pAK20), autoinduction, purified (Ni-NTA Agarose); not shown: His-Tag, N-terminal, kept
B2: binds [4].

B3: MutS protein of N. gonorrhoeae FA1090, two-hybrid fusion used with the MutLNgo fusion (plasmid pAK27) (natural protein, UniProt Q5F5J4 1-864, looked up)
chain: T1 sequence (looked up)
notes: MutS of Neisseria gonorrhoeae FA1090; mutS gene (2595 bp) amplified from chromosomal DNA and cloned into the SalI-BamHI sites of pC434 and pC22; That pAK27 is the pC22 derivative is inferred: it was paired with the pC434-borne mutLNgo gene; also called gonococcal MutS protein; source: bacterial two-hybrid fusion, expressed in E. coli R721; not shown: N-terminal domain of the repressor of phage …
In the case of B3, the “ratio of Miller Units (β-galactosidase activity) to the plasmid-less strain” value [5] is reported as 0.39 ± 0.01.
